Our source for the stoichiometry N values is article PMC5651801.

For orientation: stoichiometry N means a count of units in the complex or per binding partner.

The test concerns the target 4-HIL dehydrogenase (HILDH) from Bacillus thuringiensis 2e2, wild type (Bacillus thuringiensis 2e2). The test is described as follows: crystal structure; HILDH with 10 mM NADH, sitting-drop vapor diffusion at 20 °C, 30% PEG 400, 0.1 M acetate pH 4.5, 0.2 M calcium acetate; 2.20 Å.

Consider “4-HIL dehydrogenase (HILDH) from Bacillus thuringiensis 2e2, wild type (enzyme)”, for which the stoichiometry N was 4.
